The target of assay [1] is T1, human VEGF-A165 (human, UniProt P15692 207-395).
T1 construct: R&D Systems; homodimer; also called recombinant human VEGF-A
Put plainly: SPR, VEGF-A immobilised, positive control, 1:1 dissociation fit. For orientation: Surface plasmon resonance follows binding to a sensor surface in real time, without labels.

The target in assay [2] is T1, human VEGF-A165. Nature of the assay: SPR (Biacore T100), VEGF-A immobilised, VEGFR-2-Fc5 analyte, bivalent analyte fit.

The results in this text go back to patent US20110177074A1 (ZymoGenetics, published 2011).

A word on the koff: it is a measure of how fast the partners let go of each other. A high value points to a short-lived complex. Usually kon stands for the second-order rate constant of association. High values mean faster complex formation, low ones slower complex formation.

B1: human VEGFR-2-Fc5 (Fc fusion)
chain: not shown
notes: also called VEGF Receptor-2
Take B1: the dissociation rate constant (koff) in assay [1] is roughly 0.0002 s⁻¹. In assay [2], this molecule returned a Ka of 1e+08 M⁻¹, a Kd of 10 nM, a koff of 0.0002 s⁻¹ and a kon of 20000 M⁻¹ s⁻¹.
